From patent publication US20180273617A1 (AstraZeneca / MedImmune, published 2018)

Molecular target: T1, human ASCT2 (SLC1A5) (human, UniProt Q15758 1-541)
T1 sequence (looked up): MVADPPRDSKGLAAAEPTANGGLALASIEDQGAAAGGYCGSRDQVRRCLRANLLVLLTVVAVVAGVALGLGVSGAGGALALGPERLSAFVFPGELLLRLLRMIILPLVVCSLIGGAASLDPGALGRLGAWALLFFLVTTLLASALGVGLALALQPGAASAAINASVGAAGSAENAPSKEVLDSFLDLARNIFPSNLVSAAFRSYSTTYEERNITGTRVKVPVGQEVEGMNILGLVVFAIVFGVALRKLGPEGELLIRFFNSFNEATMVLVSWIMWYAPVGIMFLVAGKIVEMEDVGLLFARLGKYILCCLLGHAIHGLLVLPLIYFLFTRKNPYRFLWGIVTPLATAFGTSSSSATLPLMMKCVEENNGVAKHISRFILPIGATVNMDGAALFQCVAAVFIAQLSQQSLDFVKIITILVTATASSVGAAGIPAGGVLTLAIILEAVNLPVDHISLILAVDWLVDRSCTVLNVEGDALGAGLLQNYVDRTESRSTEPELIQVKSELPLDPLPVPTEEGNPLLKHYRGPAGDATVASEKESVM
Experiment: cell-based or functional assay

B1: anti-ASCT2 antibody 17c10 conjugated to tubulysin AZ1508 (antibody, V domains shown)
VH: QVQLQQWGAGLLKPSETLSLTCAVYGGSFSGYYWSWIRQPPGKGLEWIGEIHHSGGANYNPSLKSRVTISVDTSKNQFSLKLTSVTAADTAVYYCARGQGKNWHYDYFDYWGQGTLVTVSS
VL: DIQMTQSPSTLSTSVGDRVTLTCRASQSIRSWLAWYQQNPGKAPKLLIYKASILKIGVPSRFSGSGSGTDFTLTITSLQPDDFATYYCQQYYSYSRTFGQGTKVEIK
modifications: tubulysin AZ1508 conjugated to a cysteine by a thiol-maleimide linkage; site not stated for these assays (engineered cysteine 239i or native cysteines)
IC50 (ng/ml), cytotoxic killing of SKMEL-2 cells, ASCT1-shRNA1 knockdown: 7.59 ng/mL
IC50 (ng/ml), cytotoxic killing of SKMEL-2 cells, ASCT1-shRNA2 knockdown: 4.96 ng/mL
IC50 (ng/ml), cytotoxic killing of SKMEL-2 cells, ASCT2-shRNA knockdown: 205 ng/mL
IC50 (ng/ml), cytotoxic killing of SKMEL-2 cells, NTshRNA (non-target control): 14.3 ng/mL
